Test results reported in paper PMC6078464.

Molecular target: PEDV nsp15 (H241A) (PEDV FJZZ strain)
Assay: AUC

**Q.** PEDV nsp15 (H241A) (enzyme) was tested. Which percentage as hexamer did it give?
**A.** The percentage as hexamer was 81.2%.
